Source: article PMC4368798, “Protein-Binding RNA Aptamers Affect Molecular Interactions Distantly from Their Binding Sites”

Columns and labels:
pro-uPA wild type [1] = target: T1, pro-uPA wild type (Homo sapiens, UniProt P00749 21-431); assay: competition, 125I-pro-uPA cell binding; U937 cells, 1 h, 4 C; effect lost on prolonged incubation; SPR: HBS (20 mM HEPES, 140 mM NaCl, pH 7.4), 2 mM MgCl2, 0.1% BSA, 0.005% Tween 20, temperature not stated; SAXS: HBS, 2 mM MgCl2, 25 C; conditions: protein: recombinant
pro-uPA wild type;uPAR [2] = target: T2, pro-uPA wild type;uPAR (Homo sapiens;Homo sapiens, UniProt P00749;Q03405 21-431;23-305, |); assay: SPR; 100 nM aptamer on captured pro-uPA:uPAR; SPR: HBS (20 mM HEPES, 140 mM NaCl, pH 7.4), 2 mM MgCl2, 0.1% BSA, 0.005% Tween 20, temperature not stated; SAXS: HBS, 2 mM MgCl2, 25 C; conditions: protein: recombinant;recombinant; tags: ;; copies: 1;1
pro-uPA wild type;uPAR [3] = target: T2, pro-uPA wild type;uPAR; assay: SPR competition; 200 nM control RNA; no significant effect on vitronectin binding; SPR: HBS (20 mM HEPES, 140 mM NaCl, pH 7.4), 2 mM MgCl2, 0.1% BSA, 0.005% Tween 20, temperature not stated; SAXS: HBS, 2 mM MgCl2, 25 C; conditions: protein: recombinant;recombinant; tags: ;; copies: 1;1
pro-uPA wild type [4] = target: T1, pro-uPA wild type; assay: SPR competition; up to 200 nM control RNA; no effect on pro-uPA binding to LRP-1A; SPR: HBS (20 mM HEPES, 140 mM NaCl, pH 7.4), 2 mM MgCl2, 0.1% BSA, 0.005% Tween 20, temperature not stated; SAXS: HBS, 2 mM MgCl2, 25 C; conditions: protein: recombinant
pro-uPA R391/231A = pro-uPA R391/231A (Homo sapiens, UniProt P00749 21-431, R411A); assay: SPR competition; still inhibits uPAR binding (data not shown); SPR: HBS (20 mM HEPES, 140 mM NaCl, pH 7.4), 2 mM MgCl2, 0.1% BSA, 0.005% Tween 20, temperature not stated; SAXS: HBS, 2 mM MgCl2, 25 C; conditions: protein: recombinant; 79 nt
pro-uPA Y284/127A = pro-uPA Y284/127A (Homo sapiens, UniProt P00749 21-431, Y304A); assay: as above; conditions: protein: recombinant; 79 nt
pro-uPA wild type [5] = target: T1, pro-uPA wild type; assay: SPR competition; inhibition of 4 nM pro-uPA binding to immobilized uPAR; SPR: HBS (20 mM HEPES, 140 mM NaCl, pH 7.4), 2 mM MgCl2, 0.1% BSA, 0.005% Tween 20, temperature not stated; SAXS: HBS, 2 mM MgCl2, 25 C; conditions: protein: recombinant; 79 nt
ATF of uPA = ATF of uPA (UniProt P00749 21-151); assay: SPR competition; inhibition of 4 nM ATF binding to immobilized uPAR; SPR: HBS (20 mM HEPES, 140 mM NaCl, pH 7.4), 2 mM MgCl2, 0.1% BSA, 0.005% Tween 20, temperature not stated; SAXS: HBS, 2 mM MgCl2, 25 C; conditions: protein: commercial; 79 nt
GFD of uPA = target: T3, GFD of uPA (Homo sapiens, UniProt P00749 24-63); assay: SPR competition; 50 nM aptamer; no inhibition of GFD binding to uPAR; SPR: HBS (20 mM HEPES, 140 mM NaCl, pH 7.4), 2 mM MgCl2, 0.1% BSA, 0.005% Tween 20, temperature not stated; SAXS: HBS, 2 mM MgCl2, 25 C; conditions: protein: recombinant; 79 nt
T3 chain: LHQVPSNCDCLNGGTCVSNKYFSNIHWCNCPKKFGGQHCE

T2 sequence (Q03405 23-305, chain 2 of 2, other chains not shown): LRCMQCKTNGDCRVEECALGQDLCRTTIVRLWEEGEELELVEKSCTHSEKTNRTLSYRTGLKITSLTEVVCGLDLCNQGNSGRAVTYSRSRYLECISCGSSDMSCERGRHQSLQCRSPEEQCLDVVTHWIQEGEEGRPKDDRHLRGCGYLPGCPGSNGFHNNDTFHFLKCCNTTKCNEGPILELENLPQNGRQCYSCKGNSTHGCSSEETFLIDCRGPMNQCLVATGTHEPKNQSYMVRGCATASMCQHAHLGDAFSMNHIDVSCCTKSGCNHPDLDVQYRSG

B1: upanap-126 (XNA)
RNA: GGGGCCACCAACGACAUUCAUUCGCACGCUGUGUGGGGAUUAGUCCCGAUGUUGUUGAUAUAAAUAGUGCCCAUGGAUC
modifications: 2'-fluoro pyrimidines (2'-F-C, 2'-F-U)
IC50 (pro-uPA wild type [1]): ~500 nM
binding result (pro-uPA wild type;uPAR [2]): binds

B2: control RNA (XNA)
RNA: GGGGCCACCAACGACAUUAACUCACGUUGCAACUAAUACGCUGAGUGGAAACCGUUGAUAUAAAUAGUGCCCAUGGAUC
modifications: 2'-fluoro pyrimidines (2'-F-C, 2'-F-U)
binding result (pro-uPA wild type;uPAR [3]): no binding
binding result (pro-uPA wild type [4]): no binding

B3: upanap-12 (XNA)
RNA: GGGGCCACCAACGACAUUUGCGACUGUUAUAACCUAACAGCGACGUAAAGAUAGUUGAUAUAAAUAGUGCCCAUGGAUC
modifications: 2'-fluoro pyrimidines (2'-F-C, 2'-F-U)
binding result (pro-uPA R391/231A): binds
binding result (pro-uPA Y284/127A): binds
IC50 (pro-uPA wild type [5]): 2.2 ± 0.1 nM
IC50 (ATF of uPA): 1.8 ± 0.2 nM
binding result (GFD of uPA): no binding
